The data set “SEC” concerns the molecule itself. The experiment in a line: SEC. In general terms: Size exclusion chromatography separates by hydrodynamic size, large species first.
A further data set deals with Pex1/Pex6 complex (Saccharomyces cerevisiae, UniProt P24004). In words: ATPase assay.

Drawing on paper PMC4355278 (Journal of molecular biology, 2015), this text covers binding result and Kd for two molecules.

B1: Pex1-FLAG (recombinant) (natural protein, S. cerevisiae, UniProt P24004 1-1043, looked up)
chain: MTTTKRLKFENLRIQFSNAIVGNFLRLPHSIINVLESTNYAIQEFGIAVHSHNSDIPIVHLGWDGHDSGSSENVVLINPVLATVYDLNQKSPLVDLYIQRYDHTHLATEVYVTPETSDDWEIIDANAMRFQNGEILHQTRIVTPGETLICYLEGIVTKFKIDRVEPSMKSARITDGSLVVVAPKVNKTRLVKAEYGHSNKTILKNGAIQLLKKVILRSTVCKMDFPKDNLFVVYISDGAQLPSQKGYASIVKCSLRQSKKSDSDNKSVGIPSKKIGVFIKCDSQIPENHIALSSHLWDAFFTHPMNGAKIKLEFLQMNQANIISGRNATVNIKYFGKDVPTKSGDQYSKLLGGSLLTNNLILPTEQIIIEIKKGESEQQLCNLNEISNESVQWKVTQMGKEEVKDIIERHLPKHYHVKETGEVSRTSKDEDDFITVNSIKKEMVNYLTSPIIATPAIILDGKQGIGKTRLLKELINEVEKDHHIFVKYADCETLHETSNLDKTQKLIMEWCSFCYWYGPSLIVLDNVEALFGKPQANDGDPSNNGQWDNASKLLNFFINQVTKIFNKDNKRIRVLFSGKQKTQINPLLFDKHFVSETWSLRAPDKHARAKLLEYFFSKNQIMKLNRDLQFSDLSLETEGFSPLDLEIFTEKIFYDLQLERDCDNVVTRELFSKSLSAFTPSALRGVKLTKETNIKWGDIGALANAKDVLLETLEWPTKYEPIFVNCPLRLRSGILLYGYPGCGKTLLASAVAQQCGLNFISVKGPEILNKFIGASEQNIRELFERAQSVKPCILFFDEFDSIAPKRGHDSTGVTDRVVNQLLTQMDGAEGLDGVYILAATSRPDLIDSALLRPGRLDKSVICNIPTESERLDILQAIVNSKDKDTGQKKFALEKNADLKLIAEKTAGFSGADLQGLCYNAYLKSVHRWLSAADQSEVVPGNDNIEYFSINEHGRREENRLRLKTLLQQDVVHETKTSTSAASELTAVVTINDLLEACQETKPSISTSELVKLRGIYDRFQKDRNGEMPNGENSIDIGSRLSLM
Consider B1, for which, in the data set “SEC”, the binding result is “binds”.

B2: Pex15 cytosolic domain (protein)
chain: MAASEIMNNLPMHSLDSSLRDLLNDDLFIESDESTKSVNDQRSEVFQECVNLFIKRDIKDCLEKMSEVGFIDITVFKSNPMILDLFVSACDIMPSFTKLGLTLQSEILNIFTLDTPQCIETRKIILGDLSKLLVINKFFRCCIKVIQFNLTDHTEQEEKTLELESIMSDFIFVYITKMRTTIDVVGLQELIEIFIFQVKVKLHHKKPSPNMYWALCKTLPKLSPTLKGLYLSKDVSIEDAILNSIDNKIQKDKAKSKGKQRGVKQKIHHFHEPMLHNSSEEQVKVEDAFNQRTSTDSRLQSTGTAPRKKNNDITVLAGSFWAVLKHHFTRS
A word on the Kd: it is the free concentration of one partner at which half of the binding sites on the other are occupied at equilibrium, for simple one-to-one binding. A lower Kd goes with a tighter complex. As to B2, binding in the data set with Pex1/Pex6 complex was put at a Kd of 185 nM.
